From patent US20230357364A1 (INTERNATIONAL AIDS VACCINE INITIATIVE, published 2023)
Where two headings read alike, the source gives them in different places.

Legend:
SARS-CoV-2 RBD (RBD-2) [1] = target: SARS-CoV-2 RBD (RBD-2) (SARS-CoV-2); test: SPR, Fc-captured IgG
SARS-CoV-2 RBD (RBD-2) [2] = target: SARS-CoV-2 RBD (RBD-2) (SARS-CoV-2); test: flow, HeLa-ACE2, mAb:RBD=2:1
SARS-CoV-2 RBD (RBD-2) [3] = target: SARS-CoV-2 RBD (RBD-2) (SARS-CoV-2); test: flow, HeLa-ACE2, mAb:RBD=4:1
[4] = target: T1, SARS-CoV-1 spike on pseudovirus (SARS-CoV-1, UniProt P59594 14-1255); test: cell-based or functional assay
[5] = target: T2, SARS-CoV-2 spike on pseudovirus or live virus (USA-WA1/2020, WT) (SARS-CoV-2, UniProt P0DTC2 14-1273); test: cell-based or functional assay
SARS-CoV-1 RBD (RBD-1) = SARS-CoV-1 RBD (RBD-1) (SARS-CoV-1); test: ELISA
SARS-CoV-2 RBD (RBD-2) [6] = target: SARS-CoV-2 RBD (RBD-2) (SARS-CoV-2); test: ELISA
[7] = target: T1, SARS-CoV-1 spike on pseudovirus; test: cell-based or functional assay; remark: listed apart in the source
[8] = target: T2, SARS-CoV-2 spike on pseudovirus or live …; test: cell-based or functional assay; remark: listed apart in the source

| Binder | Kd (SARS-CoV-2 RBD (RBD-2) [1]) | koff (SARS-CoV-2 RBD (RBD-2) [1]) | kon (SARS-CoV-2 RBD (RBD-2) [1]) | % inhibition of RBD binding to hACE2 (SARS-CoV-2 RBD (RBD-2) [2]) | MFI (RBD binding to cell surface) (SARS-CoV-2 RBD (RBD-2) [2]) | % inhibition of RBD binding to hACE2 (SARS-CoV-2 RBD (RBD-2) [3]) | MFI (RBD binding to cell surface) (SARS-CoV-2 RBD (RBD-2) [3]) | PSV neutralization IC50 [4] | PSV neutralization IC50 [5] | EC50 (SARS-CoV-1 RBD (RBD-1)) | EC50 (SARS-CoV-2 RBD (RBD-2) [6]) | PSV neutralization IC50 [7] | Maximum Plateau of Neutralization [8] | PSV neutralization IC50 [8] |
| --- | --- | --- | --- | --- | --- | --- | --- | --- | --- | --- | --- | --- | --- | --- |
| L12.cP08A09 (antibody, V domains shown, human IgG1) VH: QVQLVQSGAEVKKPGASVKVSCKASGYIYSGYYMHWVRQAPGQGLEWMGWISPDSGGTNYAQRFQGRVTMTRDTSTTTAYMELSRLRSDDTAVYYCARGPRYSGTYFDYWGQGTLVTVSS VL: QSALTQPASVSGSPGQSITISCTGTSSDVGGYNYVSWYQQHPDKAPKLMIYDVSNRPSGVSNRFSGSKSGNTASLTISGLQAEDEADYYCSSYTSGSTQVFGGGTKLTVL | 175 nM | 0.0707 s⁻¹ | 404000 M⁻¹ s⁻¹ | 39.4% | 6800 | 49% | 5740 | > 50 µg/mL | 0.382 µg/mL | > 50 µg/mL | 0.666 µg/mL | > 50 µg/mL | 99% | 1.5 µg/mL |
| L25.eP04C02 (antibody, V domains shown, human IgG1) VH: not shown VL: QSVLTQPASVSGSPGQSITISCTGTSSDVGGYNYVSWYQQHPGKAPKLMIYDVSNRPSGVSNRFSGSKSGNTASLTISGLQAEDEADYYCSSYTSSSTVVFGGGTKLTVL |  |  |  |  |  |  |  |  |  | > 50 µg/mL | 0.026 µg/mL | > 50 µg/mL | 100% | 0.155 µg/mL |
| L12.bP10G07 (antibody, V domains shown, human IgG1) VH: EVQLVQSGAEVKKPGASVKVSCKASGYIYSGYYMHWVRQAPGQGLEWMGWISPDSGGTNYAQRFQGRVTMTRDTSTTTAYMELSRLRSDDTAMYYCARGPRYSGTYFDYWGQGTLVTVSS VL: QTVVTQPASVSGSPGQSITISCTGTSSDVGGYNYVSWYQQHPDKAPKLIIYDVSNRPSGVSNRFSGSKSGNTASLTISGLQAEDEAAYYCSSYTSSSTQVFGGGTKLTVL | 220 nM | 0.0961 s⁻¹ | 436000 M⁻¹ s⁻¹ | 36.6% | 7120 | 49.2% | 5710 |  | 0.865 µg/mL | > 50 µg/mL | 1.41 µg/mL | > 50 µg/mL | 100% | 0.328 µg/mL |
| L12.bP11C10 (antibody, V domains shown, human IgG1) VH: QVQLVQSGAEVKKPGASVKVSCKASGYIFSGYYMHWVRQAPGQGLEWMGWISPDSGGTNYAQKFQGRVTMTRDTSITTGYMELSGLRSDDTAVYYCARGPRYSGTYFDYWGQGTLVTISS VL: QSALTQPTSVSGSPGQSITISCTGTSSDVGGYNYVSWYQQHPGKAPKLIIYDVSNRPSGVSNRFSGSKSGNTASLTISGLQAEDEADYYCSSYTVSSTQVFGGGTKLTVL | 255 nM | 0.126 s⁻¹ | 493000 M⁻¹ s⁻¹ | 38.5% | 6900 | 54.1% | 5170 | > 50 µg/mL | 0.092 µg/mL | > 50 µg/mL | 3.12 µg/mL | > 50 µg/mL | 100% | 0.494 µg/mL |
| L12.cP09C07 (antibody, V domains shown, human IgG1) VH: QVQLVQSGAEVKKPGASVKVSCKASGYIYSGYFMHWVRQAPGQGLEWMGWISPDSGGANYAQTFQGRVTMTRDTSTTTAHMELSRLRSDDTAVYYCARGPRYSGTHFDYWGQGTLVTVSS VL: QSALTQPASVSGSPGQSLTISCTGTSSDVGGYNYVSWYQQHPDKAPKLMIYDVNNRPSGVSNRFSGSKSGSTASLTISGLQAEDEADYYCSSYAGSSTQVFGGGTKLIVL | 87.9 nM | 0.0691 s⁻¹ | 786000 M⁻¹ s⁻¹ | 54.5% | 5130 | 64.3% | 4040 | > 50 µg/mL | 0.085 µg/mL | > 50 µg/mL | 0.16 µg/mL | > 50 µg/mL | 95% |  |
| L12.cP09D03 (antibody, V domains shown, human IgG1) VH: QVQLVQSGAEVKKPGASVKVSCKASGYIFSGYYTHWVRQAPGQGLEWMGWISPDSGGTNYAQKFQGRVTMTRDTSITTAYVELSGLRSDDTAVYYCARGPRYSGTYFDYWGQGTLVTVSS VL: QSVLTQPASVSGSPGQSITISCTGTSSDVGGYNYVSWYQQHPGKVPKLMIYDVSNRPSGVSNRFSGSKSGNTASLTISGLQAEDEADYYCSSYTSSSAQLFGGGTKLTVL | 147 nM | 0.0843 s⁻¹ | 575000 M⁻¹ s⁻¹ | 40.9% | 6640 | 50.1% | 5620 | > 50 µg/mL | 0.351 µg/mL | > 50 µg/mL |  | > 50 µg/mL | 85% | 0.135 µg/mL |
| L12.bP12H09 (antibody, V domains shown, human IgG1) VH: QVQLVQSGAEVKKPGASVKVSCKASGYIFSGYYTHWVRQAPGQGLEWMGWISPDSGGTNYAQKFQGRVTMTRDTSITTAYVELSGLRSDDTAVYYCARGPRYSGTYFDYWGQGTLVTVSS VL: QSALTQPASVSGSPGQSITISCTGTSSDVGGYNHVSWYQQHPGKAPKLMIYDVSNRPSGVSNRFSGSKSGNTASLTISGLQAEDEADYYCSSYTSSSAQLFGGGTKLTVL | 155 nM | 0.12 s⁻¹ | 773000 M⁻¹ s⁻¹ | 41.6% | 6560 | 54.7% | 5100 | > 50 µg/mL | 0.062 µg/mL | > 50 µg/mL | 0.483 µg/mL | > 50 µg/mL | 100% | 0.106 µg/mL |
| L25.dP06E11 (antibody, V domains shown, human IgG1) VH: QVQLVESGGGLVQPGRSLRLSCAASGFTFDDYAMHWVRQAPGKGLEWVSGISWNSGSIGYADSVKGRFTISRDNAKNSLYLQMNGLRAEDTALYYCAKVPQRSRYLVGWFDPWGQGTLVTVSS VL: not shown |  |  |  |  |  |  |  |  |  | 0.017 µg/mL | 0.016 µg/mL | > 50 µg/mL | 55% | 34.6 µg/mL |
| L6.dP02F01 (antibody, V domains shown, human IgG1) VH: EVQLVESGGGLVQPGRSLRLSCAASGFTFDDYAMHWVRQAPGKGLEWVSGISWNSGSIAFAGSVKGRFTISRDNAKNSLYLQMNSLRAEDTALYYCAKDQGYSYGNYFDYWGQGTLVTVSS VL: QLVLTQPPSVSVAPGKTARITCGGNNIGSKSVYWYQQKPGQAPVLVVYDDSDRPSGIPERFSGSNSGNTATLTISRVEAGDEADYYCQVWDSSSDHPYVFGSGTKVTVL |  |  |  |  |  |  |  |  |  | 0.021 µg/mL | 0.013 µg/mL | 5.56 µg/mL | 99% | 1.09 µg/mL |
| L12.bP11A06 (antibody, V domains shown) VH: EVQLVESGGGLIQPGGSLRLSCAASGLTVSSNYMSWVRQAPGKGLEWVSVIYSGGSTFYADSVKGRFTISRDNSKNTLYLQMNSLRAEDTAVYYCARDLDVYGLDVWGQGTTVTVSS VL: DIVMTQSPSFLSASVGDRVTITCRASQGISSYLAWYQQKPGKAPKLLIYAASTLQSGVPSRFSGSGSGTEFTLTISSLQPEDFATYYCQQLNSYPPKFTFGPGTKVEIK |  |  |  |  |  |  |  | > 50 µg/mL |  |  |  | > 50 µg/mL | 100% | 0.019 µg/mL |
| L6.dP02A05 (antibody, V domains shown, human IgG1) VH: EVQLVQSGAEVKKPGASVKVSCMASGYTFTSYYMHWVRQAPGQGLEWMGIISPSGGGTSYAQKFQGRVTLTRDTSTSTVYMELSSLRSEDTAVYYCARWYDSTGSIDYWGQGTLVTVSS VL: DIVMTQSPSSLSASVGDRVTITCRASQGIRNDLGWYQQKPGKAPKRLIYAASSLQSGVPSRFSGSGSGTEFTLTISSLQPEDFATYYCLQHNSYPILTFGGGTKVEIK |  |  |  |  |  |  |  |  |  | > 50 µg/mL | 0.025 µg/mL | > 50 µg/mL | 100% | 0.059 µg/mL |
| L12.bP13A12 (antibody, V domains shown) VH: not shown VL: SYELTQSPSVSVAPGQTARITCGGNNIGSKSVHWYQRKPGQAPVLVVYDDSDRPSGIPERFSGSNSGNTATLTISRVEAGDEADYYCQVWDNNSDHLVFGGGTKLTVL | 26 nM | 0.0115 s⁻¹ | 443000 M⁻¹ s⁻¹ | -44.2% | 16100 | -46.7% | 16400 | > 50 µg/mL | 0.051 µg/mL | > 50 µg/mL | 0.019 µg/mL | > 50 µg/mL | 50% | > 50 µg/mL |
| L12.bP12E05 (antibody, V domains shown, human IgG1) VH: EVQLVQSGAEVKKPGASVKVTCKTSGYIFSGYYMHWVRQVPGQGLEWMGWISPDSGATNYAQKFQGRVTMTRDTSITTSYVELTWLKSDDTAVYYCARGPRYSGTYFDFWGQGTLVTVSS VL: QAVVTQPASVSGSPGQSLTISCTGTSSDIGGFNYVSWYQQHPGKAPKLMIFDVSKRPSGVPNRFSGSKSGNTASLTISGLQAEDEGDYYCSSYTISSAQVFGGGTKLTVL | 183 nM | 0.143 s⁻¹ | 782000 M⁻¹ s⁻¹ |  |  |  |  | > 50 µg/mL | 0.075 µg/mL | > 50 µg/mL | 1.17 µg/mL | > 50 µg/mL | 89% | 0.255 µg/mL |
